1 molecule from patent US9315563B2, “Peptides that inhibit angiotensin converting enzyme and peptides with antioxidant activity purified from ovotransferrin and methods of producing and using the same” (The Governors of the University of Alberta, priority 2009, dated 2016) can be followed below.

The assay can be described thus: ORAC-FL assay (oxygen radical absorbance capacity). The settings on record: ovotransferrin hydrolysates. As to the method: Briefly, 80 mM AAPH and 200 nM fluorescein in 75 mM phosphate buffer at pH 7.4 were prepared for each experiment. For each run, 20 μL of antioxidant, and 80 μL of phosphate buffer (or 100 μL of Trolox standard solutions at final concentrations of 1 to 8 μM) were placed in wells of a 96-well microplate, followed by addition of 50 μL of the fluorescein solution. The mixture was preincubated for 15 min at 37° C. 50 μL of AAPH solution was added rapidly using a multichannel pipet. The microplate was immediately placed in a Fluoroskan Ascent microplate reader (Thermo Electron Corporation) with 485-P excitation and 538-P emission filters and the fluorescence recorded every minute for 100 min. All readings were recorded using Fluoroskan Ascent software. The area under the curve of fluorescence decay (AUC) was calculated using Graphpad prism software (trial version). Regression equations between AUC and antioxidant concentrations were calculated for all the samples. The ORAC value was calculated by dividing the slope of sample regression curve by the slope of Trolox regression curve. Final ORAC values were expressed as μmol of Trolox equivalent/mg of protein or peptide.

B1: Unhydrolyzed ovotransferrin: egg ovotransferrin, un-hydrolyzed parent protein (protein, UniProt P02789 20-705, looked up)
Ovotransferrin: APPKSVIRWCTISSPEEKKCNNLRDLTQQERISLTCVQKATYLDCIKAIANNEADAISLDGGQAFEAGLAPYKLKPIAAEVYEHTEGSTTSYYAVAVVKKGTEFTVNDLQGKTSCHTGLGRSAGWNIPIGTLLHRGAIEWEGIESGSVEQAVAKFFSASCVPGATIEQKLCRQCKGDPKTKCARNAPYSGYSGAFHCLKDGKGDVAFVKHTTVNENAPDQKDEYELLCLDGSRQPVDNYKTCNWARVAAHAVVARDDNKVEDIWSFLSKAQSDFGVDTKSDFHLFGPPGKKDPVLKDLLFKDSAIMLKRVPSLMDSQLYLGFEYYSAIQSMRKDQLTPSPRENRIQWCAVGKDEKSKCDRWSVVSNGDVECTVVDETKDCIIKIMKGEADAVALDGGLVYTAGVCGLVPVMAERYDDESQCSKTDERPASYFAVAVARKDSNVNWNNLKGKKSCHTAVGRTAGWVIPMGLIHNRTGTCNFDEYFSEGCAPGSPPNSRLCQLCQGSGGIPPEKCVASSHEKYFGYTGALRCLVEKGDVAFIQHSTVEENTGGKNKADWAKNLQMDDFELLCTDGRRANVMDYRECNLAEVPTHAVVVRPEKANKIRDLLERQEKRFGVNGSEKSKFMMFESQNKDLLFKDLTKCLFKVREGTTYKEFLGDKFYTVISSLKTCNPSDILQMCSFLEGK
As to B1, the ORAC was found to be 0.21 ± 0.04 µmol/mg.
